Test results as given in paper PMC5125011, “Soluble Siglec-5 associates to PSGL-1 and displays anti-inflammatory activity” (Scientific Reports, 2016).

T1: human soluble recombinant PSGL1 fused to human Fc (human, UniProt Q14242 18-320)
T1 construct: P-selectin glycoprotein ligand-1 (PSGL1), human, soluble ectodomain; Sialylated glycoprotein; also called sPSGL1/Fc; soluble PSGL1/Fc; source: bought: R&D Systems (cat# 3345-PS)
T1 sequence (looked up): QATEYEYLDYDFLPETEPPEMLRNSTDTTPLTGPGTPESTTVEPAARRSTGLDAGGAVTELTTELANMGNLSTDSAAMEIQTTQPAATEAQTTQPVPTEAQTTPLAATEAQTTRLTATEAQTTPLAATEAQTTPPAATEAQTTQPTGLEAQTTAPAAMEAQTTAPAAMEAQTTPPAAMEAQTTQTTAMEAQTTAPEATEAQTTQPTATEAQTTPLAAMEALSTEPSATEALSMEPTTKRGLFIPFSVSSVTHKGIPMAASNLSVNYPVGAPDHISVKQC


Columns and labels:
[1] = target: the molecule itself; assay: SDS-PAGE under non-reduced and reduced conditions; purified sSiglec-5/C4BP, Coomassie-staining; about 525 kDa non-reduced, 75 kDa reduced; heptamer to single chains
[2] = target: T1, human soluble recombinant PSGL1 fused …; assay: ELISA; sPSGL1/Fc (0.25 μg/well) adsorbed to microtiter wells; Tris-buffered saline with 2.5 mM CaCl2, 0.1% Tween-20, 3% BSA; bound sSiglec-5 probed with biotin-labeled polyclonal anti-Siglec-5 antibodies, bound P-selectin with a monoclonal anti-P-selectin antibody; controls with EDTA (5 mM) or polyclonal anti-Siglec-5 antibodies (6 μM) inhibited binding; details: both partners purified

Binder | stoichiometry N [1] | EC50 [2] [nM]
heptameric Siglec-5/C4BP fusion protein (other, UniProt O15389 17-434, looked up, Siglec-5 ectodomain, residues 17-434; also called sSiglec-5/C4BP; sSg-5/C4BP) EKPVYELQVQKSVTVQEGLCVLVPCSFSYPWRSWYSSPPLYVYWFRDGEIPYYAEVVATNNPDRRVKPETQGRFRLLGDVQKKNCSLSIGDARMEDTGSYFFRVERGRDVKYSYQQNKLNLEVTALIEKPDIHFLEPLESGRPTRLSCSLPGSCEAGPPLTFSWTGNALSPLDPETTRSSELTLTPRPEDHGTNLTCQMKRQGAQVTTERTVQLNVSYAPQTITIFRNGIALEILQNTSYLPVLEGQALRLLCDAPSNPPAHLSWFQGSPALNATPISNTGILELRRVRSAEEGGFTCRAQHPLGFLQIFLNLSVYSLPQLLGPSCSWEAEGLHCRCSFRARPAPSLCWRLEEKPLEGNSSQGSFKVNSSSAGPWANSSLILHGGLSSDLKVSCKAWNIYGSQSGSVLLLQGRSNLGTETPEGCEQVLTGKRLMQCLPNPEDVKMALEVYKLSLEIEQLELQRDSARQSTLDKEL | 7 | 8 ± 1
Recombinant soluble Siglec-5 fused to human Fc (Fc fusion, UniProt O15389 17-441, looked up, Siglec-5, soluble; also called sSiglec-5/Fc; sSg-5/Fc; source: bought: R&D Systems (cat# 1072-SL), produced in mouse myeloma cell-line NS0) EKPVYELQVQKSVTVQEGLCVLVPCSFSYPWRSWYSSPPLYVYWFRDGEIPYYAEVVATNNPDRRVKPETQGRFRLLGDVQKKNCSLSIGDARMEDTGSYFFRVERGRDVKYSYQQNKLNLEVTALIEKPDIHFLEPLESGRPTRLSCSLPGSCEAGPPLTFSWTGNALSPLDPETTRSSELTLTPRPEDHGTNLTCQMKRQGAQVTTERTVQLNVSYAPQTITIFRNGIALEILQNTSYLPVLEGQALRLLCDAPSNPPAHLSWFQGSPALNATPISNTGILELRRVRSAEEGGFTCRAQHPLGFLQIFLNLSVYSLPQLLGPSCSWEAEGLHCRCSFRARPAPSLCWRLEEKPLEGNSSQGSFKVNSSSAGPWANSSLILHGGLSSDLKVSCKAWNIYGSQSGSVLLLQGRSNLGTGVVPAAL |  | 49 ± 11
